For orientation: Tm means the temperature at the midpoint of the melting transition.

“And” between values parts separate entries of the source, which are not always exact repeats. Equal entries are not always repeated.

For the data set the following is noted: Thermal, CD, whole UniProt chain shown.

B1: Frataxin, mitochondrial wild type, Q16595 (protein)
chain: MWTLGRRAVAGLLASPSPAQAQTLTRVPRPAELAPLCGRRGLRTDIDATCTPRRASSNQRGLNQIWNVKKQSVYLMNLRKSGTLGHPGSLDETTYERLAEETLDSLAEFFEDLADKPYTFEDYDVSFGSGVLTVKLGGDLGTYVINKQTPNKQIWLSSPSSGPKRYDWTGKNWVYSHDGVSLHELLAAELTKALKTKLDLSSLAYSGKDA
In the case of B1, the midpoint of thermal melting (Tm) by setting is: (Homo sapiens, pH 6, phosphate 150 mM, reversible: yes (>95%)) 64.9 °C; (Homo sapiens, pH 7, Hepes 10 mM, CaCl2 1 mM, reversible: yes (>95%)) 65.9 °C; (Homo sapiens, pH 7, Hepes 10 mM, NaCl 150 mM, reversible: yes (>95%)) 65 °C; (Homo sapiens, pH 7, Hepes 10 mM, reversible: yes (88%)) 68.6 °C; (Homo sapiens, pH 7, phosphate 20 mM, reversible: yes (>95%)) 60 °C; (Homo sapiens, pH 7, phosphate 150 mM, reversible: yes (>95%)) 65.7 °C.

B2: Frataxin homolog, mitochondrial wild type, Q07540 (protein)
chain: MIKRSLASLVRVSSVMGRRYMIAAAGGERARFCPAVTNKKNHTVNTFQKRFVESSTDGQVVPQEVLNLPLEKYHEEADDYLDHLLDSLEELSEAHPDCIPDVELSHGVMTLEIPAFGTYVINKQPPNKQIWLASPLSGPNRFDLLNGEWVSLRNGTKLTDILTEEVEKAISKSQ
As to B2, the Tm runs as follows: (Saccharomyces cerevisiae (strain ATCC 204508 / S288c), pH 6, phosphate 20 mM, reversible: yes (>95%)) 39.9 °C; (Saccharomyces cerevisiae (strain ATCC 204508 / S288c), pH 6, phosphate 150 mM, reversible: yes (>95%)) 49 °C; (Saccharomyces cerevisiae (strain ATCC 204508 / S288c), pH 7, Hepes 10 mM, CaCl2 1 mM, reversible: yes (>95%)) 51.1 °C; (Saccharomyces cerevisiae (strain ATCC 204508 / S288c), pH 7, Hepes 10 mM, CaCl2 150 mM, reversible: yes (>95%)) 52.9 °C; (Saccharomyces cerevisiae (strain ATCC 204508 / S288c), pH 7, Hepes 10 mM, NaCl 150 mM, reversible: yes (>95%)) 44.6 °C; (Saccharomyces cerevisiae (strain ATCC 204508 / S288c), pH 7, Hepes 10 mM, NaF 150 mM, reversible: yes (>95%)) 44.8 °C. Further, the Tm (Saccharomyces cerevisiae (strain ATCC 204508 / S288c), pH 7, phosphate 150 mM, reversible: yes (>95%)) is 48.6 °C and 53.6 °C; the Tm (Saccharomyces cerevisiae (strain ATCC 204508 / S288c), pH 7.2, Hepes 10 mM, NaF 150 mM, reversible: yes (>95%)) stood at 46.9 °C; the midpoint of thermal melting (Tm) (Saccharomyces cerevisiae (strain ATCC 204508 / S288c), pH 7.2, Hepes 10 mM, reversible: No) worked out at 44.8 °C; the Tm (Saccharomyces cerevisiae (strain ATCC 204508 / S288c), pH 7.2, Hepes 10 mM, reversible: yes (47%)) came out at 42.3 °C; the Tm (Saccharomyces cerevisiae (strain ATCC 204508 / S288c), pH 7.2, Hepes 10 mM, reversible: yes (86%)) worked out at 37.9 °C; the Tm (Saccharomyces cerevisiae (strain ATCC 204508 / S288c), pH 7.4, Hepes 10 mM, reversible: yes (>95%)) worked out at 35.5 °C. The Tm (Saccharomyces cerevisiae (strain ATCC 204508 / S288c), pH 8, phosphate 150 mM, reversible: yes (>95%)) is 45.9 °C.

B3: Iron-sulfur cluster assembly protein CyaY wild type, P27838 (protein)
chain: MNDSEFHRLADQLWLTIEERLDDWDGDSDIDCEINGGVLTITFENGSKIIINRQEPLHQVWLATKQGGYHFDLKGDEWICDRSGETFWDLLEQAATQQAGETVSFR
Consider B3, for which the melting temperature (Tm) by setting is: (Escherichia coli (strain K12), pH 6, phosphate 20 mM, reversible: yes (>95%)) 53.5 °C; (Escherichia coli (strain K12), pH 7, Hepes 10 mM, CaCl2 1 mM, reversible: yes (>95%)) 62.7 °C; (Escherichia coli (strain K12), pH 7, Hepes 10 mM, reversible: yes (86%)) 61.2 °C; (Escherichia coli (strain K12), pH 7, Hepes 10 mM, reversible: yes (>95%)) 50.4 °C; (Escherichia coli (strain K12), pH 7, phosphate 20 mM, reversible: yes (>95%)) 53.8 °C; (Escherichia coli (strain K12), pH 7.5, Hepes 10 mM, reversible: yes (86%)) 60.5 °C. Besides, the Tm is, setting by setting: (Escherichia coli (strain K12), pH 7.5, Hepes 10 mM, reversible: yes (>95%)) 54.8 °C and 58.3 °C; (Escherichia coli (strain K12), pH 8, phosphate 20 mM, reversible: yes (>95%)) 53.8 °C; (Escherichia coli (strain K12), pH 8, phosphate 200 mM, reversible: yes (>95%)) 45.8 °C.
